Test system: NCCC[C@H](N)C(=O)O
Assay: cells, lysate or membranes
Conditions: other: direct uptake into LLCPK-TREx-hCAT1 cells

hCAT1 (Homo sapiens), sequence (chain, as listed by the source): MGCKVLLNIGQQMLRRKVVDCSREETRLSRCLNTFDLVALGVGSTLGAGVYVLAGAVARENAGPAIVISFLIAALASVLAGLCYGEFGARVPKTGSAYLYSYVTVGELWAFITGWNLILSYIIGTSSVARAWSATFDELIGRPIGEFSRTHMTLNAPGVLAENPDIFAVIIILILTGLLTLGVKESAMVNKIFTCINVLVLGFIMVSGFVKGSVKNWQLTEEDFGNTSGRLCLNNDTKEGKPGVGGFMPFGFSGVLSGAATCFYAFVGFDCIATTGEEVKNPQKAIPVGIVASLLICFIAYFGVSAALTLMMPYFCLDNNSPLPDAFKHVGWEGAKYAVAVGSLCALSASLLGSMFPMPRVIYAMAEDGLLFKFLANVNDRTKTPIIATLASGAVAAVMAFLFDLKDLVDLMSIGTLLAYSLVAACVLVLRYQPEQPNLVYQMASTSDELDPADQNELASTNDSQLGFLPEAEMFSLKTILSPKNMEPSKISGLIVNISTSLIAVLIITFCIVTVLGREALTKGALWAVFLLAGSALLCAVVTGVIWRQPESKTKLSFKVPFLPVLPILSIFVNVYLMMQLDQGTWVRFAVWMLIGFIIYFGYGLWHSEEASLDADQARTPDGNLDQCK

Question: For hCAT1 (Homo sapiens), which Km is on record?
Answer: 200 µM

Question: What about the Km (5 minutes at room temperature, specific uptake (+TET minus no TET)) of the same substance?
Answer: 184 µM

— patent US7670782B2, “Screening of compounds for CAT1 transporter activity” (XenoPort, Inc., priority 2005, dated 2010)
